PMC9482650, “Quantitative fragmentomics allow affinity mapping of interactomes” (Nature Communications, 2022)

How the values were obtained:
Assay in all cases: holdup assay
Parameters in all cases: key: below the threshold = too weak to quantify, mostly under pKd 3.1 to 4
Settings in all cases: plain residues with an end cap or a label only (N-terminal biotin on a linker: ttds)
SIPA1L3, O60292 = target: T1, SIPA1L3, O60292
T1 sequence (O60292 961-1052, limits assumed, looked up): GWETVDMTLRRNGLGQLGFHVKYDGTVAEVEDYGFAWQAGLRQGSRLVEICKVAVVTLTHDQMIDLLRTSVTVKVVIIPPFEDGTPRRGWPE

DLG5_2, Q8TDM6 = target: DLG5_2, Q8TDM6
DLG5_2, Q8TDM6, sequence (Q8TDM6 714-800): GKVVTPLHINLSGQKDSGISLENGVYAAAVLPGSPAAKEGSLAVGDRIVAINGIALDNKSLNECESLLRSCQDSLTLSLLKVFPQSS

PDZD9, Q8IXQ8 = target: PDZD9, Q8IXQ8
PDZD9, Q8IXQ8, sequence (Q8IXQ8 23-120): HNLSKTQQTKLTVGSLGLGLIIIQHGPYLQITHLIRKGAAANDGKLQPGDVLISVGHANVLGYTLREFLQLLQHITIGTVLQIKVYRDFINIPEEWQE

PDZD2_4, O15018 = target: T2, PDZD2_4, O15018
T2 sequence (O15018 723-823, limits assumed, looked up): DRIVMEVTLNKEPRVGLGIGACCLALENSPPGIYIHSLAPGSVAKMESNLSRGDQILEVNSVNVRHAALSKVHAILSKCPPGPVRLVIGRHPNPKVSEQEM

PDLIM4, P50479 = target: PDLIM4, P50479
PDLIM4, P50479, sequence (P50479 1-83): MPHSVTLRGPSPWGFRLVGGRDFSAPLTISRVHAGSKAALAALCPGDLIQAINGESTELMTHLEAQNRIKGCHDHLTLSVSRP

NHERF4_3, Q86UT5 = target: NHERF4_3, Q86UT5
NHERF4_3, Q86UT5, sequence (Q86UT5 325-412): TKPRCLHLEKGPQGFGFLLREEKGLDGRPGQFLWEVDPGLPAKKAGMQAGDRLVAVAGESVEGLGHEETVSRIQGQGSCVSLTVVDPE

MAGI1_4, Q96QZ7 = target: MAGI1_4, Q96QZ7
MAGI1_4, Q96QZ7, sequence (Q96QZ7 other isoform, or with tags, fused parts or gaps): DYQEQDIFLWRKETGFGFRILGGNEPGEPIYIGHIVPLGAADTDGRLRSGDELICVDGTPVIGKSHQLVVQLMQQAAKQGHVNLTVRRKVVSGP

RGS12, O14924 = target: T3, RGS12, O14924
T3 sequence (O14924 17-108, limits assumed, looked up): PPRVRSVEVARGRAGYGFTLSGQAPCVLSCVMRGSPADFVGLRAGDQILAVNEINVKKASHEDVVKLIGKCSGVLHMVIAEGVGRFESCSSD

CNKSR3, Q6P9H4 = target: CNKSR3, Q6P9H4
CNKSR3, Q6P9H4, sequence (Q6P9H4 203-303): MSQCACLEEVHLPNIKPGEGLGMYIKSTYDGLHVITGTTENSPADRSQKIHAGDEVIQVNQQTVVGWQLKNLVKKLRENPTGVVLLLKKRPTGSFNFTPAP

SNTB2, Q13425 = target: T4, SNTB2, Q13425
T4 sequence (Q13425 110-208, limits assumed, looked up): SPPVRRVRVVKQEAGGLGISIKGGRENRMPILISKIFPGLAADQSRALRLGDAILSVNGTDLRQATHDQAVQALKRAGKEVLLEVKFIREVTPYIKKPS

CARD14, Q9BXL6 = target: CARD14, Q9BXL6
CARD14, Q9BXL6, sequence (Q9BXL6 558-663): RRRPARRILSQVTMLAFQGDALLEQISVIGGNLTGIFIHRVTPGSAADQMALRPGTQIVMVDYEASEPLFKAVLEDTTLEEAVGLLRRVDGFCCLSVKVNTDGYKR

MAST3, O60307 = target: MAST3, O60307
MAST3, O60307, sequence (O60307 945-1048): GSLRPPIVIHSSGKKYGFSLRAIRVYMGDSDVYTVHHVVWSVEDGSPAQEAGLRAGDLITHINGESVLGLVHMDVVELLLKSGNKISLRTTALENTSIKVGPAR

MAGI1_3, Q96QZ7 = target: MAGI1_3, Q96QZ7
MAGI1_3, Q96QZ7, sequence (Q96QZ7 638-725): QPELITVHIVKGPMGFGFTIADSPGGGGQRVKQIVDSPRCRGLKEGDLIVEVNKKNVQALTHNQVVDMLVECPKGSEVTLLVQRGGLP

MPDZ_11, O75970 = target: T5, MPDZ_11, O75970
T5 sequence (O75970 1720-1817, limits assumed, looked up): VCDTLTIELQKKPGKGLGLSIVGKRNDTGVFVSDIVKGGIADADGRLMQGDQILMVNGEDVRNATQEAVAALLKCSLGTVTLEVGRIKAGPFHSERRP

PARD3_1, Q8TEW0 = target: PARD3_1, Q8TEW0
PARD3_1, Q8TEW0, sequence (Q8TEW0 264-372): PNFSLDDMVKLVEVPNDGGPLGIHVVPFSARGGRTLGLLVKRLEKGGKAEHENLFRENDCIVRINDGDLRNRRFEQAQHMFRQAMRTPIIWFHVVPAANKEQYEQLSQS

MPDZ_7, O75970 = target: T6, MPDZ_7, O75970
T6 sequence (O75970 1146-1253, limits assumed, looked up): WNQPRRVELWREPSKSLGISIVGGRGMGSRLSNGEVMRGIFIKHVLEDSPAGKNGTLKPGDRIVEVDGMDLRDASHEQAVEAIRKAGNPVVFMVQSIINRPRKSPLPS

MAGI3_4, Q5TCQ9 = target: MAGI3_4, Q5TCQ9
MAGI3_4, Q5TCQ9, sequence (Q5TCQ9 716-815): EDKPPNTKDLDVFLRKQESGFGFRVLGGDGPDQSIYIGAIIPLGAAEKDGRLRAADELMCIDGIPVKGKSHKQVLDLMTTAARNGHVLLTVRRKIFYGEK

DVL1, O14640 = target: T7, DVL1, O14640
T7 sequence (O14640 246-333, limits assumed, looked up): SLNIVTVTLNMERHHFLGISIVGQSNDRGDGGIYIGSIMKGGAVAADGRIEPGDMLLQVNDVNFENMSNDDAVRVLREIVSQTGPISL

PTPN13_5, Q12923 = target: T8, PTPN13_5, Q12923
T8 sequence (Q12923 1877-1975, limits assumed, looked up): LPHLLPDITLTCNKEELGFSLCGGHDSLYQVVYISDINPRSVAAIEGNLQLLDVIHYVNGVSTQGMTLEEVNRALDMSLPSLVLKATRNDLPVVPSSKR

PDZD11, Q5EBL8 = target: T9, PDZD11, Q5EBL8
T9 sequence (Q5EBL8 42-139, limits assumed, looked up): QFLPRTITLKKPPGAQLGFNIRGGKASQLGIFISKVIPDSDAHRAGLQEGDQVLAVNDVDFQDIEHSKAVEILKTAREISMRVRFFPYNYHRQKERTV

MPP5, Q8N3R9 = target: T10, MPP5, Q8N3R9
T10 sequence (Q8N3R9 251-346, limits assumed, looked up): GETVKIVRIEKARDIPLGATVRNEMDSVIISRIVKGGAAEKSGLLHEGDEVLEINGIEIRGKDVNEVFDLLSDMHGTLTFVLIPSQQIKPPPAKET

NHERF1_2, O14745 = target: T11, NHERF1_2, O14745
T11 sequence (O14745 149-244, limits assumed, looked up): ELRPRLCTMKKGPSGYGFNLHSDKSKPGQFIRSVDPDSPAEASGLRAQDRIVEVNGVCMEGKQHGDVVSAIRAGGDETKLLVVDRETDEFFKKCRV

LNX2_4, Q8N448 = target: T12, LNX2_4, Q8N448
T12 sequence (Q8N448 595-690, limits assumed, looked up): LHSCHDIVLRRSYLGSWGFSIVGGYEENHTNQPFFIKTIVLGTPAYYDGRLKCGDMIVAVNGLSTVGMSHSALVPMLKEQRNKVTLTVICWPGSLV

SHROOM3, Q8TF72 = target: T13, SHROOM3, Q8TF72
T13 sequence (Q8TF72 20-120, limits assumed, looked up): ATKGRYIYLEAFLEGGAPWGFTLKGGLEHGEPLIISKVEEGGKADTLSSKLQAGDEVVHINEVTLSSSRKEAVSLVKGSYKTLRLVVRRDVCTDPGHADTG

B1: FRMPD4, Q14CM0 (peptide)
chain: RLPKIKETTV
pKd (SIPA1L3, O60292): below the threshold
pKd (DLG5_2, Q8TDM6): 4.7
pKd (PDZD9, Q8IXQ8): below the threshold
pKd (PDZD2_4, O15018): below the threshold
pKd (PDLIM4, P50479): below the threshold
pKd (NHERF4_3, Q86UT5): below the threshold
pKd (MAGI1_4, Q96QZ7): below the threshold
pKd (RGS12, O14924): 4.61
pKd (CNKSR3, Q6P9H4): 4.24
pKd (SNTB2, Q13425): 5.36
pKd (CARD14, Q9BXL6): below the threshold
pKd (MAST3, O60307): below the threshold
pKd (MAGI1_3, Q96QZ7): 4.82
pKd (MPDZ_11, O75970): below the threshold
pKd (PARD3_1, Q8TEW0): below the threshold
pKd (MPDZ_7, O75970): below the threshold
pKd (MAGI3_4, Q5TCQ9): below the threshold
pKd (DVL1, O14640): 4.63
pKd (PTPN13_5, Q12923): below the threshold
pKd (PDZD11, Q5EBL8): below the threshold
pKd (MPP5, Q8N3R9): below the threshold
pKd (NHERF1_2, O14745): below the threshold
pKd (LNX2_4, Q8N448): below the threshold
pKd (SHROOM3, Q8TF72): below the threshold

B2: HPV18-E6, P06463 (peptide)
chain: RLQRRRETQV
pKd (SIPA1L3, O60292): below the threshold
pKd (DLG5_2, Q8TDM6): below the threshold
pKd (PDZD9, Q8IXQ8): below the threshold
pKd (PDZD2_4, O15018): below the threshold
pKd (PDLIM4, P50479): below the threshold
pKd (NHERF4_3, Q86UT5): below the threshold
pKd (MAGI1_4, Q96QZ7): 4.28
pKd (RGS12, O14924): 4.35
pKd (CNKSR3, Q6P9H4): 4.1
pKd (SNTB2, Q13425): 4.58
pKd (CARD14, Q9BXL6): below the threshold
pKd (MAST3, O60307): below the threshold
pKd (MAGI1_3, Q96QZ7): below the threshold
pKd (MPDZ_11, O75970): below the threshold
pKd (PARD3_1, Q8TEW0): below the threshold
pKd (MPDZ_7, O75970): below the threshold
pKd (MAGI3_4, Q5TCQ9): below the threshold
pKd (DVL1, O14640): below the threshold
pKd (PTPN13_5, Q12923): below the threshold
pKd (PDZD11, Q5EBL8): below the threshold
pKd (MPP5, Q8N3R9): below the threshold
pKd (NHERF1_2, O14745): below the threshold
pKd (LNX2_4, Q8N448): below the threshold
pKd (SHROOM3, Q8TF72): below the threshold

B3: DOCK4, Q8N1I0 (peptide)
chain: RPLPRKVSQL
pKd (SIPA1L3, O60292): below the threshold
pKd (DLG5_2, Q8TDM6): below the threshold
pKd (PDZD9, Q8IXQ8): below the threshold
pKd (PDZD2_4, O15018): below the threshold
pKd (PDLIM4, P50479): below the threshold
pKd (NHERF4_3, Q86UT5): 4.21
pKd (MAGI1_4, Q96QZ7): below the threshold
pKd (RGS12, O14924): below the threshold
pKd (CNKSR3, Q6P9H4): below the threshold
pKd (SNTB2, Q13425): below the threshold
pKd (CARD14, Q9BXL6): below the threshold
pKd (MAST3, O60307): below the threshold
pKd (MAGI1_3, Q96QZ7): below the threshold
pKd (MPDZ_11, O75970): below the threshold
pKd (PARD3_1, Q8TEW0): below the threshold
pKd (MPDZ_7, O75970): below the threshold
pKd (MAGI3_4, Q5TCQ9): 4.12
pKd (DVL1, O14640): below the threshold
pKd (PTPN13_5, Q12923): below the threshold
pKd (PDZD11, Q5EBL8): below the threshold
pKd (MPP5, Q8N3R9): below the threshold
pKd (NHERF1_2, O14745): 4.45
pKd (LNX2_4, Q8N448): below the threshold
pKd (SHROOM3, Q8TF72): below the threshold
